Source: publication PMC3240717

Molecular target: CD44-AFAP-110 complex (human (endogenous in MDA-MB-231)) (UniProt P16070)
Assay: radioligand binding

Chain of UniProt P16070 (P16070 21-742, chain 1 of 2): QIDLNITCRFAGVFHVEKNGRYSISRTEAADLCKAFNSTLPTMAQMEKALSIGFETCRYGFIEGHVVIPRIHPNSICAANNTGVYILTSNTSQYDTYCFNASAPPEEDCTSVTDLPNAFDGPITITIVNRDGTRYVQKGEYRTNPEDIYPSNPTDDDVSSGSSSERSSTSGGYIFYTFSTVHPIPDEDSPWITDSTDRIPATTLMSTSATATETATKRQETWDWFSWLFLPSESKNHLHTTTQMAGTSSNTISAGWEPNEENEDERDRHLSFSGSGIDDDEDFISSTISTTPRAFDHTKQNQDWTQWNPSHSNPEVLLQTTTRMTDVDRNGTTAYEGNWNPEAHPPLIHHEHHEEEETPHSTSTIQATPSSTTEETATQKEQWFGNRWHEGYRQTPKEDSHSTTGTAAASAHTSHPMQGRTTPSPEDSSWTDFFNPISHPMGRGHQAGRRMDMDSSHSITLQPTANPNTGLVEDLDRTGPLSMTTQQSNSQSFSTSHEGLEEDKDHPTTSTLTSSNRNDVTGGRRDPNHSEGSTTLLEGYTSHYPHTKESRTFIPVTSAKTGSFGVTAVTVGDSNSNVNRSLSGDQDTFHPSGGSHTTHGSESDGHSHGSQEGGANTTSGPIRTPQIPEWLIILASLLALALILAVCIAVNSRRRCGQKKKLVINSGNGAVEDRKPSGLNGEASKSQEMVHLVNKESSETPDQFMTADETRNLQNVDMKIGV
Chain of UniProt P16070 (Q8N556 whole entry, chain 2 of 2, further chain): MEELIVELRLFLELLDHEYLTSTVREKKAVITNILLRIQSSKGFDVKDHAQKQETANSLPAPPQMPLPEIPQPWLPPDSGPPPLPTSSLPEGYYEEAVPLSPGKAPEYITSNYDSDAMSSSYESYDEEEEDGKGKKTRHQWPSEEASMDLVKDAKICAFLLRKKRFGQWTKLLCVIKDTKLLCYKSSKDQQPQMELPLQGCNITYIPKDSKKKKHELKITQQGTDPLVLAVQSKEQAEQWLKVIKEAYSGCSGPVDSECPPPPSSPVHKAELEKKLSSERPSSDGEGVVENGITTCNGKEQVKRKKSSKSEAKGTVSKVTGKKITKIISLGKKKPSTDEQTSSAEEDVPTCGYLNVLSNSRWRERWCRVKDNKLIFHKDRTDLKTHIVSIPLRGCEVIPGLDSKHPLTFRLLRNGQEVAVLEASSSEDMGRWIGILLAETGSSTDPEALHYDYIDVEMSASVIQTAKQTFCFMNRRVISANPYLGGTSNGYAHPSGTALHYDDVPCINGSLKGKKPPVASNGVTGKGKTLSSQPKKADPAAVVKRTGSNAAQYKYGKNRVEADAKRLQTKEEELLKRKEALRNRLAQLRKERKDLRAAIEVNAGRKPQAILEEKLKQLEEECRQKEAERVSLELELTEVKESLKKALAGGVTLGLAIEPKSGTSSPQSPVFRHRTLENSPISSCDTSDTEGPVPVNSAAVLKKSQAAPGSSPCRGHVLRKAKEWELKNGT

- 125I-F-actin bound, cpm (cells: HA fragment (2-3 disaccharide) treatment): 11700 cpm
- 125I-F-actin bound, cpm (cells: HMW-HA treatment): 13800 cpm
- 125I-F-actin bound, cpm (cells: LMW-HA treatment): 38400 cpm
- 125I-F-actin bound, cpm (cells: anti-CD44 IgG + LMW-HA treatment): 12500 cpm
- 125I-F-actin bound, cpm (cells: no treatment, control): 12700 cpm
- 125I-F-actin bound, cpm (cells: normal IgG + LMW-HA treatment): 38000 cpm
- 125I-F-actin bound, cpm (cells: normal IgG + no HA treatment): 12500 cpm
- 125I-F-actin bound, cpm (cells: scrambled siRNA, HMW-HA treatment): 11500 cpm
- 125I-F-actin bound, cpm (cells: scrambled siRNA, LMW-HA treatment): 31800 cpm
- 125I-F-actin bound, cpm (cells: scrambled siRNA, no treatment, control): 11000 cpm
Substance: filamentous actin (F-actin) (natural protein)
